Test results from PMC12376267 (Chemistry (Weinheim an Der Bergstrasse, Germany), 2025).
One block for each binder: values may come before it. Positions of bridges follow the written chain, without caps; N, C: chain ends.

Molecular target: T1, Recombinant mouse NELL2 (neural epidermal growth factor-like like 2) (mouse, UniProt Q61220 25-819)
T1 sequence (looked up): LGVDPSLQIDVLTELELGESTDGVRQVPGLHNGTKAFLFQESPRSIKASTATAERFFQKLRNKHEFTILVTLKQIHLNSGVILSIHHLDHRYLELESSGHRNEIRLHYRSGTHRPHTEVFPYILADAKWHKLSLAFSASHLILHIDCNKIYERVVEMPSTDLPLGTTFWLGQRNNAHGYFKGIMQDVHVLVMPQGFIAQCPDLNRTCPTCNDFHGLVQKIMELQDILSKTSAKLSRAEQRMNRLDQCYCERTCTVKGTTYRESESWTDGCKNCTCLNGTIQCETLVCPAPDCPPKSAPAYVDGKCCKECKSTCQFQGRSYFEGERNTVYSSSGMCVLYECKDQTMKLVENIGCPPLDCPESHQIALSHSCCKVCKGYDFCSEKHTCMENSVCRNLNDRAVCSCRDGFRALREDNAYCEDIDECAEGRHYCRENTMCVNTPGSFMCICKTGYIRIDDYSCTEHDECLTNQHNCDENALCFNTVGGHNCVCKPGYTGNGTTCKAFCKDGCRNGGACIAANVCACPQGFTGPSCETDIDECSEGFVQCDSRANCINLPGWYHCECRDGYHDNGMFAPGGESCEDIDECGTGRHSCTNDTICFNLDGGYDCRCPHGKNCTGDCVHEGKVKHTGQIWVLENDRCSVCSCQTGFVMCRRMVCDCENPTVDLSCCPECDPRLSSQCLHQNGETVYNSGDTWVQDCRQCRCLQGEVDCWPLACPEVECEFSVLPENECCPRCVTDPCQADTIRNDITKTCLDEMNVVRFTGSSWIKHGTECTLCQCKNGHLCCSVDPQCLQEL
Assay: SPR

Kd: 61.7 nM
koff: 0.00134 s⁻¹
kon: 23500 M⁻¹ s⁻¹
B1: Synthetic NICOL with the native SS bond pairing 3 (mouse NELL2-interacting cofactor for lumicrine signaling) (natural protein)
chain: EPATGSAVPAQSRPCVDCHAFEFMQRALQDLRKTAYSLDARTETLLLQAERRALCACWPAGR
modifications: disulfide 15-55, 18-57

Kd: 145 nM
koff: 0.00157 s⁻¹
kon: 13800 M⁻¹ s⁻¹
B2: Synthetic NICOL with the SS isomer 4 (mouse NICOL, non-native SS bond pairing) (natural protein)
chain: B1 chain
modifications: disulfide 15-57, 18-55
